Our source for the Kd values is patent publication US20220332804A1 (CSL INNOVATION, published 2022).

Assay in all cases: SPR, antibody captured, C2 as analyte;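 note: biacore at 37 °C, anti-C2 mAbs held by immobilised goat anti-human IgG, C2 alanine or serine mutants injected, double-referenced sensorgrams fitted to a 1:1 kinetic or steady-state model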
In general terms: In SPR one partner is held on a chip, and binding of the other changes the refractive index at the surface.

Test [1] has as its target T1, human C2 N471A (human, UniProt P06681 21-752).
T1 sequence: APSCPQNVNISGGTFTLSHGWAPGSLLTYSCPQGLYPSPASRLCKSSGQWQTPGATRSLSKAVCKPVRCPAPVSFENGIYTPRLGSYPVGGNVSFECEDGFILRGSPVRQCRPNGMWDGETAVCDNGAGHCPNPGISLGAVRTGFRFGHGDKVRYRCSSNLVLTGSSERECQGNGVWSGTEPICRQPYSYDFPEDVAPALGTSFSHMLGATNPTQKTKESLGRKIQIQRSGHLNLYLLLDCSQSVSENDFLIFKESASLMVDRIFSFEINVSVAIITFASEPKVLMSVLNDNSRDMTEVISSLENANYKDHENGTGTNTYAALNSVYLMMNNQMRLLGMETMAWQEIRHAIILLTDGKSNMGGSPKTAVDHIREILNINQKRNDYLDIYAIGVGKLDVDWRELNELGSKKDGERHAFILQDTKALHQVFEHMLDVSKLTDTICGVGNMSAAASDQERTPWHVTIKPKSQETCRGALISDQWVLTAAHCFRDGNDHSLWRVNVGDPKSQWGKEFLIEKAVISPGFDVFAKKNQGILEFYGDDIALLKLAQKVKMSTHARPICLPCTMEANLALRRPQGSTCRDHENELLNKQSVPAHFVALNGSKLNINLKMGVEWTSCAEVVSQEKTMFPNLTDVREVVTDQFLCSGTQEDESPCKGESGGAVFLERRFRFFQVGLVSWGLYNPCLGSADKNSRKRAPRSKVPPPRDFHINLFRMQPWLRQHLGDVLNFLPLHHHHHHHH

The target of test [2] is T2, human C2 A326S (human, UniProt P06681 21-752).
T2 sequence: T1 sequence with A306S, A451N

Test [3] has as its target T3, human C2 A444S (human, UniProt P06681 21-752).
T3 sequence: T1 sequence with A424S, A451N

Test [4] has as its target T4, human C2 N403A (human, UniProt P06681 21-752).
T4 sequence: T1 sequence with N383A, A451N

Residue numbers refer to the chain shown, from its start.

One may read the Kd as the constant that tells how readily two partners part at equilibrium. A lower Kd goes with a tighter complex.

B1: RF16-242 (antibody, human IgG4 S228P, lambda, V domains shown)
VH: EVQLLQSGAEVKKPGESLKISCKGSGYSFTSYWIGWVRQMPGKGLEWMGIIYPGDSDTRYSPSFQGQVTISADKSISTAYLQWSSLKASDTAMYYCARRGHYGDYFDYWGQGTLVTVSS
VL: SYELTQPPSVSVSPGQTARITCSGDALPKKYAYWYHQKSGQAPVLVIYEDRRRPSEIPERFSGSSSGTMATLTITGAQVEDEGVYFCYSRDRAGNQRVFGGGTQLTVLG
notes: pH-dependent anti-C2 antibody from a phage display library
Turning to B1, the Kd in test [1] was found to be 9.2 nM; in test [2] it was 9.9 nM; in test [3], 22.4 nM; in test [4], 8.2 nM.
